The text below walks through data of patent US20200317768A1 (published 2020).

The experiment addresses T1, cynomolgus monkey FcγRIIa3 extracellular domain, C-terminal His-tag (cynomolgus monkey).
T1 construct: also called cyno FcγRIIa3; FcgRIIa3; not shown: His-tag added to the C-terminus
T1 chain: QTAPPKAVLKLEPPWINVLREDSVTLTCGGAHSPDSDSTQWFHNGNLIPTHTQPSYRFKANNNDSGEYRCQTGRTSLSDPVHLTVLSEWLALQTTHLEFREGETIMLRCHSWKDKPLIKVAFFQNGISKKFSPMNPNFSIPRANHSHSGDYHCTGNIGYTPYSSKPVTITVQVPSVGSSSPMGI
Kind of experiment: SPR (BIACORE), antibody captured, soluble FcgR as analyte, 25C. As to the method:
The kinetic analysis of interactions between these antibodies and FcγR was carried out using BIACORE® T200 or BIACORE® 4000 (GE Healthcare). HBS-EP+ (GE Healthcare) was used as the running buffer, and the measurement temperature was set to 25° C. A chip produced by immobilizing Protein A. Protein A/G or mouse anti-human IgG kappa light chain (BD Biosciences) onto a Series S Sensor Chip CM4 or CM5 (GE Healthcare) by the amine-coupling method was used. […] After the measurement, the antibody captured on the chip was washed off by allowing reaction with 10 mM glycine-HCl, pH1.5 and 25 mM NaOH so that the chip was regenerated and used repeatedly. The sensorgrams obtained as measurement results were analyzed by the 1:1 Langmuir binding model using the BIACORE® Evaluation Software to calculate the binding rate constant ka (L/mol/s) and dissociation rate constant kd (l/s), and the dissociation constant KD (mol/L) was calculated from these values. […] Regarding such interactions, KD values were calculated using the following 1:1 binding model described in BIACORE® T100 Software Handbook BR1006-48 Edition AE.
The behavior of interacting molecules according to the 1:1 binding model on BIACORE® can be described by Equation 1: Req=C·R max/(KD+C)+RI, wherein, Req is a plot of steady-state binding levels to analyte concentration. C is concentration, RI is bulk refractive index contribution in the sample, and Rmax is analyte binding capacity of the surface. When this equation is rearranged, KD can be expressed as Equation 2: KD=C·Rmax/(Req−RI)−C. KD can be calculated by substituting the values of Rmax, RI, and C into Equation 1 or Equation 2. From the current measurement conditions, RI=0, C=2 μmol/L can be used.

B1: MS1032LO06-SG1 (M103205H795-SG1/M103202L889-SK1) (antibody, human IgG1, kappa)
heavy: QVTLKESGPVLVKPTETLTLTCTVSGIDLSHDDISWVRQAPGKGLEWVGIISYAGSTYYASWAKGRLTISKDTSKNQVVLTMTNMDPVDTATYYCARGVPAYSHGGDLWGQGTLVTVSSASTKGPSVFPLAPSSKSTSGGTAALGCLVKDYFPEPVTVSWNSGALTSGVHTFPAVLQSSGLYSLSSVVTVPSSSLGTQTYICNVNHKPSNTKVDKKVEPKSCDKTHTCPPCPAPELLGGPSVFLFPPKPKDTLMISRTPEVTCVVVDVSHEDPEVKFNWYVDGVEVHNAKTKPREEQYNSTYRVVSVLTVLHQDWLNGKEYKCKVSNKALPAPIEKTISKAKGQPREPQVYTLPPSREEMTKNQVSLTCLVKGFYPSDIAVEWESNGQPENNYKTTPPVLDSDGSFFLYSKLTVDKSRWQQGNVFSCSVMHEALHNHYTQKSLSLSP
light: DIVMTQSPATLSLSPGERATLSCTSSQSVYHANWLSWFQQKPGQPPKLLIYWASTLAYGVPSRFSGSGSGTDFTLTISSLQPEDAATYYCAGGYGGGRYAFGQGTKVEIKRTVAAPSVFIFPPSDEQLKSGTASVVCLLNNFYPREAKVQWKVDNALQSGNSQESVTEQDSKDSTYSLSSTLTLSKADYEKHKVYACEVTHQGLSSPVTKSFNRGEC
notes: Anti-latent myostatin antibody
The Kd is the concentration at which binding is half-saturated. The molecule B1 returned a Kd of 8600 nM.

B2: MS1032LO06-PK57 (M103205H795-PK57/M103202L889-SK1) (antibody, human IgG1, kappa)
heavy: QVTLKESGPVLVKPTETLTLTCTVSGIDLSHDDISWVRQAPGKGLEWVGIISYAGSTYYASWAKGRLTISKDTSKNQVVLTMTNMDPVDTATYYCARGVPAYSHGGDLWGQGTLVTVSSASTKGPSVFPLAPSSKSTSGGTAALGCLVKDYFPEPVTVSWNSGALTSGVHTFPAVLQSSGLYSLSSVVTVPSSSLGTQTYICNVNHKPSNTKVDKKVEPKSCDKTHTCPPCPAPELLNGPSVFLFPPKPKDTLMISRTPEVTCVVVDVSDEDPEVKFNWYVDGVEVHNAKTKPREEQYNSTYRVVSVLTVLHRDWLNGKEYKCKVSNKALPKPIEKTISKAKGQPREPQVYTLPPSREEMTKNQVSLTCLVKGFYPSDIAVEWESRGQPENNYKTTPPVLDSDGSFFLYSKLTVRKSRWQQGNVFSCSVMHEALHNHYTQKSLSLSP
light: DIVMTQSPATLSLSPGERATLSCTSSQSVYHANWLSWFQQKPGQPPKLLIYWASTLAYGVPSRFSGSGSGTDFTLTISSLQPEDAATYYCAGGYGGGRYAFGQGTKVEIKRTVAAPSVFIFPPSDEQLKSGTASVVCLLNNFYPREAKVQWKVDNALQSGNSQESVTEQDSKDSTYSLSSTLTLSKADYEKHKVYACEVTHQGLSSPVTKSFNRGEC
notes: CH PK57 = SG1 with G236N/H268D/Q311R/A330K/N384R/D413R (EU numbering); also called MS103205H795-PK57
B2 yielded a dissociation constant (Kd) of 3100 nM.

B3: MS1032LO06-MY201 (M103205H795-MY201/M103202L889-SK1) (antibody, human IgG1, kappa)
heavy: QVTLKESGPVLVKPTETLTLTCTVSGIDLSHDDISWVRQAPGKGLEWVGIISYAGSTYYASWAKGRLTISKDTSKNQVVLTMTNMDPVDTATYYCARGVPAYSHGGDLWGQGTLVTVSSASTKGPSVFPLAPSSKSTSGGTAALGCLVKDYFPEPVTVSWNSGALTSGVHTFPAVLQSSGLYSLSSVVTVPSSSLGTQTYICNVNHKPSNTKVDKKVEPKSCDKTHTCPPCPAPELLNGPSVFLFPPKPKDTLMISRTPEVTCVVVDVSDEDPEVKFNWYVDGVEVHNAKTKPREEQYNSTYRVVSVLTVLHQDWLNGKEYKCKVSNKALPKPIEKTISKAKGQPREPQVYTLPPSREEMTKNQVSLTCLVKGFYPSDIAVEWESNGQPENNYKTTPPVLDSDGSFFLYSKLTVDKSRWQQGNVFSCSVMHEALHNHYTQKSLSLSP
light: DIVMTQSPATLSLSPGERATLSCTSSQSVYHANWLSWFQQKPGQPPKLLIYWASTLAYGVPSRFSGSGSGTDFTLTISSLQPEDAATYYCAGGYGGGRYAFGQGTKVEIKRTVAAPSVFIFPPSDEQLKSGTASVVCLLNNFYPREAKVQWKVDNALQSGNSQESVTEQDSKDSTYSLSSTLTLSKADYEKHKVYACEVTHQGLSSPVTKSFNRGEC
notes: CH MY201 = SG1 with G236N/H268D/A330K (EU numbering); also called MS103205H795-MY201
As to B3, the Kd was found to be 1800 nM.

B4: MS1032LO06-PK55 (M103205H795-PK55/M103202L889-SK1) (antibody, human IgG1, kappa)
heavy: QVTLKESGPVLVKPTETLTLTCTVSGIDLSHDDISWVRQAPGKGLEWVGIISYAGSTYYASWAKGRLTISKDTSKNQVVLTMTNMDPVDTATYYCARGVPAYSHGGDLWGQGTLVTVSSASTKGPSVFPLAPSSKSTSGGTAALGCLVKDYFPEPVTVSWNSGALTSGVHTFPAVLQSSGLYSLSSVVTVPSSSLGTQTYICNVNHKPSNTKVDKKVEPKSCDKTHTCPPCPAPELLNGPSVFLFPPKPKDTLMISRTPEVTCVVVDVSDEDPEVKFNWYVDGVEVHNAKTKPREEQYNSTYRVVSVLTVLHRDWLNGKEYKCKVSNKALPKPIEKTISKAKGQRREPQVYTLPPSREEMTKNQVSLTCLVKGFYPSDIAVEWESNGQPENNYKTTPPVLDSDGSFFLYSKLTVDKSRWQQGNVFSCSVMHEALHNHYTQKSLSLSP
light: DIVMTQSPATLSLSPGERATLSCTSSQSVYHANWLSWFQQKPGQPPKLLIYWASTLAYGVPSRFSGSGSGTDFTLTISSLQPEDAATYYCAGGYGGGRYAFGQGTKVEIKRTVAAPSVFIFPPSDEQLKSGTASVVCLLNNFYPREAKVQWKVDNALQSGNSQESVTEQDSKDSTYSLSSTLTLSKADYEKHKVYACEVTHQGLSSPVTKSFNRGEC
notes: CH PK55 = SG1 with G236N/H268D/Q311R/A330K/P343R (EU numbering); also called MS103205H795-PK55
B4 came in with a Kd of 2000 nM.

B5: MS1032LO06-MY351 (M103205H795-MY351/M103202L889-SK1) (antibody, human IgG1, kappa)
heavy: QVTLKESGPVLVKPTETLTLTCTVSGIDLSHDDISWVRQAPGKGLEWVGIISYAGSTYYASWAKGRLTISKDTSKNQVVLTMTNMDPVDTATYYCARGVPAYSHGGDLWGQGTLVTVSSASTKGPSVFPLAPSSKSTSGGTAALGCLVKDYFPEPVTVSWNSGALTSGVHTFPAVLQSSGLYSLSSVVTVPSSSLGTQTYICNVNHKPSNTKVDKKVEPKSCDKTHTCPPCPAPELLNGPSVFLFPPKPKDTLMISRTPEVTCVVVDVSDEDPEVKFNWYVDGVEVHNAKTKPREEQYNSTYRVVSVLTVLHRDWLNGKEYKCKVSNKALPKPIEKTISKAKGQPREPQVYTLPPSREEMTKNQVSLTCLVKGFYPSDIAVEWESNGQPENNYKTTPPVLDSDGSFFLYSKLTVKKSRWQQGNVFSCSVMHEALHNHYTQKSLSLSP
light: DIVMTQSPATLSLSPGERATLSCTSSQSVYHANWLSWFQQKPGQPPKLLIYWASTLAYGVPSRFSGSGSGTDFTLTISSLQPEDAATYYCAGGYGGGRYAFGQGTKVEIKRTVAAPSVFIFPPSDEQLKSGTASVVCLLNNFYPREAKVQWKVDNALQSGNSQESVTEQDSKDSTYSLSSTLTLSKADYEKHKVYACEVTHQGLSSPVTKSFNRGEC
notes: CH MY351 = SG1 with G236N/H268D/Q311R/A330K/D413K (EU numbering); also called MS103205H795-MY351
Molecule B5 yielded a Kd of 2200 nM.

B6: MS1032LO06-PK56 (M103205H795-PK56/M103202L889-SK1) (antibody, human IgG1, kappa)
heavy: QVTLKESGPVLVKPTETLTLTCTVSGIDLSHDDISWVRQAPGKGLEWVGIISYAGSTYYASWAKGRLTISKDTSKNQVVLTMTNMDPVDTATYYCARGVPAYSHGGDLWGQGTLVTVSSASTKGPSVFPLAPSSKSTSGGTAALGCLVKDYFPEPVTVSWNSGALTSGVHTFPAVLQSSGLYSLSSVVTVPSSSLGTQTYICNVNHKPSNTKVDKKVEPKSCDKTHTCPPCPAPELLNGPSVFLFPPKPKDTLMISRTPEVTCVVVDVSDEDPEVKFNWYVDGVEVHNAKTKPREEQYNSTYRVVSVLTVLHRDWLNGKEYKCKVSNKALPKPIEKTISKAKGQRREPQVYTLPPSREEMTKNQVSLTCLVKGFYPSDIAVEWESNGQPENNYKTTPPVLDSDGSFFLYSKLTVRKSRWQQGNVFSCSVMHEALHNHYTQKSLSLSP
light: DIVMTQSPATLSLSPGERATLSCTSSQSVYHANWLSWFQQKPGQPPKLLIYWASTLAYGVPSRFSGSGSGTDFTLTISSLQPEDAATYYCAGGYGGGRYAFGQGTKVEIKRTVAAPSVFIFPPSDEQLKSGTASVVCLLNNFYPREAKVQWKVDNALQSGNSQESVTEQDSKDSTYSLSSTLTLSKADYEKHKVYACEVTHQGLSSPVTKSFNRGEC
notes: CH PK56 = SG1 with G236N/H268D/Q311R/A330K/P343R/D413R (EU numbering); also called MS103205H795-PK56
Take B6: binding was put at a Kd of 2500 nM.

B7: MS1032LO06-MY352 (M103205H795-MY352/M103202L889-SK1) (antibody, human IgG1, kappa, name in EU numbering)
heavy: QVTLKESGPVLVKPTETLTLTCTVSGIDLSHDDISWVRQAPGKGLEWVGIISYAGSTYYASWAKGRLTISKDTSKNQVVLTMTNMDPVDTATYYCARGVPAYSHGGDLWGQGTLVTVSSASTKGPSVFPLAPSSKSTSGGTAALGCLVKDYFPEPVTVSWNSGALTSGVHTFPAVLQSSGLYSLSSVVTVPSSSLGTQTYICNVNHKPSNTKVDKKVEPKSCDKTHTCPPCPAPELLNGPSVFLFPPKPKDTLMISRTPEVTCVVVDVSDEDPEVKFNWYVDGVEVHNAKTKPREEQYNSTYRVVSVLTVLHRDWLNGKEYKCKVSNKALPKPIEKTISKAKGQPREPQVYTLPPSREEMTKNQVSLTCLVKGFYPSDIAVEWESNGQPENNYKTTPPVLDSDGSFFLYSKLTVRKSRWQQGNVFSCSVMHEALHNHYTQKSLSLSP
light: DIVMTQSPATLSLSPGERATLSCTSSQSVYHANWLSWFQQKPGQPPKLLIYWASTLAYGVPSRFSGSGSGTDFTLTISSLQPEDAATYYCAGGYGGGRYAFGQGTKVEIKRTVAAPSVFIFPPSDEQLKSGTASVVCLLNNFYPREAKVQWKVDNALQSGNSQESVTEQDSKDSTYSLSSTLTLSKADYEKHKVYACEVTHQGLSSPVTKSFNRGEC
notes: Printed substitutions: G236N/H268D/Q311R/A330K/D413R (EU numbering); also called MS103205H795-MY352
B7: binding was put at a Kd of 2200 nM.
